In US7244563B2, “Genes for plant fatty acid modifying enzymes associated with conjugated double bond formation” (E. I. du Pont de Nemours and Company, priority 2002, dated 2007):

Assays:
[1] = test system: Tobacco (Nicotiana tabacum L. cv Xanthi) callus; test: Fatty acid analysis (GC, GC-MS) of transgenic tobacco callus expressing the cDNA; format: cell-based; settings: CaMV 35S promoter
Text: The cDNAs encoding fatty acid modifying enzymes associated with conjugated double bond synthesis in seeds of Impatiens balsamina and Momordica charantia were introduced into a plant expression vector designated pML63. Vector pML63 contains the uidA gene (which encodes the GUS enzyme) operably linked to the CaMV35S promoter and 3′ NOS sequence. pML63 is modified from pMH40 to produce a minimal 3′ NOS terminator fragment. pMH 40 is described in WO 98/16650 which was published on Apr. 23, 1998, the disclosure of which are hereby incorporated by reference. Using standard techniques familiar to those skilled in the art, the 770 base pair terminator sequence contained in pMH40 was replaced with a new 3′ NOS terminator sequence comprising nucleotides 1277 to 1556 of the sequence published by Depicker et al. (1982, J. Appl. Genet. 1:561–574). A chimeric gene was constructed comprising cDNAs encoding fatty acid modifying enzymes associated with conjugated double bond synthesis in seeds of Impatiens balsamina and Momordica charantia in sense orientation with respect to the cauliflower mosaic virus 35S promoter that is located 5′ to the cDNA fragment and termination sequences from the nopaline synthase (NOS) that are located 3′ to the cDNA fragment. The cDNAs for the Impatiens polypeptide was introduced in the NcoI and EcoRI sites of the vector pML63. The cDNA for the Momordica polypeptide was introduced into the NcoI and SmaI sites of the vector pML63. The NcoI and EcoRI sites flanking the Impatiens cDNA were generated by PCR amplification of the cDNAs using oligonucleotide primers that contained these restriction sites (SEQ ID NO:7 and SEQ ID NO:8, for the sense and antisense oligonucleotides, respectively). PCR amplification was conducted using the Pfu DNA polymerase. The NcoI site flanking the 5′ end of the Momordica cDNA was generated by PCR amplification in a similar manner (SEQ ID NO:9 and SEQ ID NO:10). The 3′ end of the PCR-generated Momordica cDNA was blunt-ended which allowed for cloning into the SmaI site of the vector pML63. The resulting fusions of the cauliflower mosaic virus 35S promoter with the cDNAs encoding fatty acid modifying enzymes associated with conjugated double bond synthesis in seeds of Impatiens balsamina or Momordica charantia and NOS termination sequences were released from the vector pML63 by digestion with XbaI. The resulting XbaI fragment was ligated into the corresponding site of the binary vector pZS199 The vector pZS199 contains the following elements: (1) the chimeric gene nopaline synthase/neomycin phosphotransferase as a selectable marker for transformed plant cells (Brevan et al. (1984) Nature 304:184–186), (2) the left and right borders of the T-DNA of the Ti plasmid (Brevan et al. (1984) Nucl. Acids Res. 12:8711–8720), (3) the E. coli lacZ-complementing segment (Vieria and Messing (1982) Gene 19:259–267) with unique restriction endonuclease sites for EcoRI, KpnI, BamHI, XbaI and SalI, (4) the bacterial replication origin from the Pseudomonas plasmid pVS1 (Itoh et al. (1984) Plasmid 11:206–220), and (5) the bacterial neomycin phosphotransferase gene from Tn5 (Berg et al. (1975) Proc. Natl. Acad. Sci. U.S.A. 72:3628–3632) as a selectable marker for transformed A. tumefaciens. The nopaline synthase promoter in the plant selectable marker was replaced by the 35S promoter (Odell et al. (1985) Nature, 313:810–813) by a standard restriction endonuclease digestion and ligation strategy.
Gene fusions of the Impatiens balsamina or Momordica charantia cDNAs with the cauliflower mosaic virus 35S promoter and the NOS termination sequences in vector pZS199 were introduced into Agrobacterium tumefaciens strain LBA4404. […]

soybean embryos = test: Fatty acid composition of transgenic soybean somatic embryos (GC, GC-MS); format: cell-based; settings: for 16:0 / 18:0 / 18:1 / 18:2 / 18:3 / α-Parinaric / Eleostearic / Other: single soybean embryo; for 16:0 / 18:0 / 18:1 / 18:2 / 18:3 / α-Parinaric: % of total oil weight; for Eleostearic: includes cis-trans isomers of α-eleostearic acid (<1.0 wt %); for Other: primarily 20:0, 20:1, 22:0, and 22:1
Experimental: Gene fusions of the Impatiens balsamina or Momordica charantia cDNAs with the conglycinin promoter and phaseolin termination sequences in vector pKS67 were introduced into soybean embryos using the particle bombardment method of transformation. To induce somatic embryos, cotyledons, 3–5 mm in length dissected from surface sterilized, immature seeds of a soybean cultivar A2872 or JACK-910 were cultured in the light or dark at 26° C. on an appropriate agar medium for 6–10 weeks. Somatic embryos that produce secondary embryos were then excised and placed into a suitable liquid medium. After repeated selection for clusters of somatic embryos that multiplied as early, globular staged embryos, the suspensions were maintained as described below.
Soybean embryogenic suspension cultures were then transformed with the vector pKS67 containing the Impatiens or Momordica cDNA for fatty acid modifying enzymes associated with conjugated double synthesis by the method of particle gun bombardment (Klein et al. (1987) Nature (London) 327:70, U.S. Pat. No. 4,945,050). A DuPont Biolistic™ PDS1000/HE instrument (helium retrofit) was used for these transformations.
Five to seven days post bombardment, the liquid media was exchanged with fresh media, and eleven to twelve days post bombardment with fresh media containing […] hygromycin. This selective media was refreshed weekly. Seven to eight weeks post bombardment, green, transformed tissue was observed growing from untransformed, necrotic embryogenic clusters. Isolated green tissue was removed and inoculated into individual flasks to generate new, clonally propagated, transformed embryogenic suspension cultures. Each new line was treated as an independent transformation event. These suspensions were then subcultured and maintained as clusters of immature embryos.
Transgenic soybean embryos selected and maintained in this manner were analyzed for eleostearic acid and parinaric acid content using methods described in Example 4 (Table 1). Individual embryos expressing either the Impatiens or Momordica fatty acid modifying enzyme for conjugated double bond synthesis were homogenized in 1% (w/v) sodium methoxide in methanol. Fatty acid methyl esters resulting from this transesterification step were analyzed by both GC and GC-MS as described in Example 4. Methyl esters of eleostearic and parinaric acids were identified in transgenic soybean extracts by comparison of retention times and mass spectra with those of fatty acid methyl esters prepared from seeds of Impatiens balsamina and Momordica charantia. […] In soybean embryos expressing the Momordica enzyme, eleostearic acid was detected principally as α-eleostearic acid with lesser amounts of at least two other cis-trans isomers of eleostearic acid. […]

[2] = soybean embryos, β-conglycinin promoter, highest amount

Molecule	eleostearic acid accumulated, relative to total fatty acid [1]	parinaric acid accumulated, relative to total fatty acid [1]	16:0 (soybean embryos; independent transgenic line 1)	18:0 (soybean embryos; independent transgenic line 1)	18:1 (soybean embryos; independent transgenic line 1)	18:2 (soybean embryos; independent transgenic line 1)	18:3 (soybean embryos; independent transgenic line 1)	α-Parinaric (soybean embryos; independent transgenic line 1)	16:0 (soybean embryos; independent transgenic line 2)	18:0 (soybean embryos; independent transgenic line 2)	18:1 (soybean embryos; independent transgenic line 2)	18:2 (soybean embryos; independent transgenic line 2)	18:3 (soybean embryos; independent transgenic line 2)	α-Parinaric (soybean embryos; independent transgenic line 2)	16:0 (soybean embryos; independent transgenic line 3)	18:0 (soybean embryos; independent transgenic line 3)	18:1 (soybean embryos; independent transgenic line 3)	18:2 (soybean embryos; independent transgenic line 3)	18:3 (soybean embryos; independent transgenic line 3)	α-Parinaric (soybean embryos; independent transgenic line 3)	further results
MomFad2: Momordica charantia fatty acid modifying enzyme associated with conjugated double bond formation, SEQ ID NO:4, cDNA SEQ ID NO:3 (protein, listed as Momordica charantia) MGGRGAIGVLRNGGGPKKKMGPGQGLGPGERITHARPPFSISQIKKAIPPHCFQRSLRRSFSYLLSDIALVSAFYYVADTYFHRLPHPLLHYLAWPVYWFCQGAVLTGMWGIAHDCGHHAFSDYQLVDDVVGFLIHSLVFVPYFSFKISHRRHHSNTSSVDRDEVFVPKPKAKMPWYFKYLTNPPARVFIIFITLTLGWPMYLTFNISGRYYGRFTSHFDPNSPIFSPKERVLVHISNAGLVATGYLLYRIAMAKGVGWLIRLYGVPLIVLNACVVLITALQHTHPSFPYYDSTEWDWLRGNLVTVDRDYGPIMNRVFHHITDTHVVHHLFPSMPHYNGKEATVAAKRILGEYYQFDGTPIWKAAWREFRECVYVEPDEDDGATSGSSSKGVFWYHNKL	1.7%	1.1%	6.9 Weight %	2.4 Weight %	43.1 Weight %	24.1 Weight %	3.1 Weight %	1.0 Weight %	7.9 Weight %	2.1 Weight %	36.8 Weight %	29.4 Weight %	5.1 Weight %	1.0 Weight %	8.4 Weight %	2.3 Weight %	41.9 Weight %	25.1 Weight %	6.1 Weight %	1.8 Weight %	Eleostearic (soybean embryos; transgenic line 1): 17.4 Weight %; Other (soybean embryos; transgenic line 1): <2.0 Weight %; Eleostearic (soybean embryos; transgenic line 2): 15.9 Weight %; Other (soybean embryos; transgenic line 2): <2.0 Weight %; Eleostearic (soybean embryos; transgenic line 3): 12.4 Weight %; Other (soybean embryos; transgenic line 3): <2.0 Weight %; eleostearic acid of the total fatty acids (soybean embryos; [2]): ≤ 16.5%; α-parinaric acid of the total fatty acids (soybean embryos; [2]): ≤ 1.5%
ImpFad2: Impatiens balsamina fatty acid modifying enzyme associated with conjugated double bond formation, SEQ ID NO:2, cDNA SEQ ID NO:1 (protein, listed as Impatiens balsamina) MGEVGPTNRTKTKLDKQQESENRVPHEPPPFTLSDLKKAIPPHCFERSLVKSFYHVIHDIIILSFFYYVAANYIPMLPQNLRYVAWPIYWAIQGCVQLGILVLGHECGHHAFSDYQWVDDMVGFVLHSSQLIPYFSWKHSHRRHHSNTASIERDEVYPPAYKNDLPWFAKYLRNPVGRFLMIFGALLFGWPSYLLFNANGRLYDRFASHYDPQSPIFNNRERLQVIASDVGLVFAYFVLYKIALAKGFVWLICVYGVPYVILNGLIVLITFLQHTHPNLPRYDLSEWDWLRGALSTVDRDYGMLNKVFHNVTDTHLVHHLFTTMPHYRAKEATEVIKPILGDYYKFDDTPFLKALWKDMGKCIYVESDVPGKNKGVYWYNNDI	3.4%	1.7%	13.3 Weight %	4.2 Weight %	20.8 Weight %	46.3 Weight %	9.2 Weight %	2.2 Weight %	13.2 Weight %	2.5 Weight %	12.2 Weight %	53.8 Weight %	12.5 Weight %	2.0 Weight %	13.5 Weight %	3.1 Weight %	11.1 Weight %	53.0 Weight %	17.3 Weight %	1.0 Weight %	Eleostearic (soybean embryos; transgenic line 1): 3.0 Weight %; Other (soybean embryos; transgenic line 1): <1.0 Weight %; Eleostearic (soybean embryos; transgenic line 2): 2.8 Weight %; Other (soybean embryos; transgenic line 2): <1.0 Weight %; Eleostearic (soybean embryos; transgenic line 3): 0.6 Weight %; Other (soybean embryos; transgenic line 3): <1.0 Weight %; α-eleostearic acid of the total fatty acids (soybean embryos; [2]): ≤ 3%; α-parinaric acid of the total fatty acids (soybean embryos; [2]): ≤ 2%
